Assays:
[1] = molecular target: T1, trypsin (Bos taurus, UniProt P00760); experiment: Trypsin degradation assay; assay type: in vitro ADME
T1 sequence (P00760 24-246): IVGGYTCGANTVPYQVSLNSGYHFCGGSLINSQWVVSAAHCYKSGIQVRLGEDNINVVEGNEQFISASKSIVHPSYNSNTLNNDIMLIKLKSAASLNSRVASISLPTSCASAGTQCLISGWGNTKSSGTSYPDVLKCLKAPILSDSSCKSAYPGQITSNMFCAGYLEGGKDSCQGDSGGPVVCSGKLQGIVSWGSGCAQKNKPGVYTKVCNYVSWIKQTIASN

[2] = cited from earlier work

| Substance | degradation half-life compared to HI + free Prg-SFTI 7 ([1]; enzyme/substrate ratio 1:2) | degradation half-life compared to HI + free Prg-SFTI 7 ([1]; enzyme/substrate ratio 1:4) | pKa of the lysine side-chain amine [2] | pKa of the two N-terminal amines (A1 and B1) [2] |
| --- | --- | --- | --- | --- |
| SFTI-Triazolyl-(GQAP)49-GQEP-Cys(B29Nε-Acetyl desB30 Human Insulin) (bicyclic or more) [insulin-SFTI 9] | 3 times | twice as long | – | – |
| insulin | – | – | ~10 | ~7 |

Source: PMC7424725 (ACS Omega, 2020)
